Experimental data published in publication PMC8617079.
Read-outs that look alike come from different tables or passages of the source.

How the values were obtained:
[1] = biological target: 26S proteasome (mouse (endogenous in striatum and hippocampus tissue)) (UniProt P62196); assay: co-IP
[2] = biological target: 26S proteasome (mouse (endogenous in striatum and hippocampus tissue)) (UniProt P62196); assay: co-IP; remark: listed apart in the source

Sequence of UniProt P62196 (P62196 whole entry, looked up): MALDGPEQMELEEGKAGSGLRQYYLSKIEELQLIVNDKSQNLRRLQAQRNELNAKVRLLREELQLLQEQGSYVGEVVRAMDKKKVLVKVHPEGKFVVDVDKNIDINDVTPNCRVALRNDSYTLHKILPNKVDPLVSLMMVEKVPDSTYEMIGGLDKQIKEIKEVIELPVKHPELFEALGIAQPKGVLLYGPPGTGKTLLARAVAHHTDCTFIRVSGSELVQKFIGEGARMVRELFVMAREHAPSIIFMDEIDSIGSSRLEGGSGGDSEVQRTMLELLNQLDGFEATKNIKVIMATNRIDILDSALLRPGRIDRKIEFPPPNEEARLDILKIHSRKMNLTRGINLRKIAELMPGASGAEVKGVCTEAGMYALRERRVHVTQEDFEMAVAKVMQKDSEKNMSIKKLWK

- pixel total of the Eno2 band [1]: 12400 pixels
- pixel total of the Eno2 band [2]: 9430 pixels
Substance: gamma-enolase (ENO2) (from UniProt P17183 1-434) (natural protein)
